From patent US20240109972A1, “ANTIBODY AND TAXANE COMBINATION THERAPY” (Genmab A/S, priority 2020, published 2024)
“Also recorded” adds a separate entry of the source.

Columns and labels:
interferon-gamma (IFN-γ) = experiment: Serum interferon-γ levels in cancer patients after GEN1046 (MSD multiplex immunoassay); format: in vivo, human
Method: Serum levels of IFN-γ were measured by a Meso Scale Discovery (MSD) multiplex immune-assay (cat. no. K15209G) following the manufacturer's instructions.

[1] = GEN1046 Phase I dose escalation, safety and dose finding; format: in vivo
Excerpt: The recommended phase 2 dose (RP2D) was based on a review of the available safety and dosing information and could be lower than the maximum tolerated dose (MTD).

GEN1046: PD-L1×4-1BB bispecific antibody: PD-L1-547-FEAL combined with CD137-009-HC7LC2-FEAR (SEQ ID NOs: 1, 5, 21, 19; 8, 12, 22, 20)
Dose levels with higher magnitude and consistent modulation of peripheral pharmacodynamic endpoints (interferon-gamma (IFN-γ); IFNγ and proliferating Ki67+ effector memory CD8+ T cells): ≥ 200 mg | Dose levels with maximal increases of IFN-γ (interferon-gamma (IFN-γ); first treatment cycle): 50 mg and 80 mg | Increase of IFN-γ levels (interferon-gamma (IFN-γ); first treatment cycle, across all dose levels tested): more than 2 fold | Doses administered safely ([1]; 1Q3W): up to 1200 mg | Patients with dose limiting toxicities (DLTs) ([1]; dose escalation): Six | Severity of most adverse events ([1]; dose escalation): mild to moderate | Treatment-related bilirubin increases or Grade 4 transaminase elevations ([1]; dose escalation): No treatment-related bilirubin increases or Grade 4 transaminase elevations were observed | Maximum tolerated dose (MTD) ([1]; dose escalation, 1Q3W): not reached; also recorded: no MTD was determined | Most frequent adverse events ([1]; patients receiving GEN1046): transaminase elevations, followed by hyperthyroidism, fatigue, nausea, asthenia and neutrophil count decrease
